Results on ten sequences are retold here after the supplement of paper PMC10724198.

Series [1] relates to Saccharomyces cerevisiae. Put plainly: protein stability index of tFT-peptide fusion (C-terminal peptide) (PSI (0-1 scale)); higher = more stable (slower turnover). The protocol: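 MPS profiling in S. cerevisiae of the tFT-X12 degron library: putative degron peptides plus stable controls, 12 aa, fused to the C-terminus of a sfGFP-mCherry timer. Cells are FACS-sorted into 8 mCherry/sfGFP bins and deep-sequenced. PSI runs from 0 (unstable) to 1 (stable). Backgrounds are wild type, das1Δ and doa10Δ at 30 °C, and wild type, das1Δ, cdc34-1 and cdc53-1 at 37 °C; 2-3 technical replicates each.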

The subject of series [2] is Saccharomyces cerevisiae. The series is described as above. Particulars: genetic background: wild type; temperature: 30 C.
Setting [3] is: genetic background: cdc34-1, temperature: 37 C.
[4] abbreviates: genetic background: cdc53-1, temperature: 37 C.
Where [5] appears, read: genetic background: das1 deletion, temperature: 30 C.
Where [6] appears, read: genetic background: das1 deletion, temperature: 37 C.
The mark [7] stands for this setting: genetic background: doa10 deletion, temperature: 30 C.
The mark [8] stands for this setting: genetic background: wild type, temperature: 30 C.
[9] abbreviates: genetic background: wild type, temperature: 37 C.

± gives the standard deviation of the averaged measurements.
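Also: PSI is a weighted mean of sequencing reads over stability bins, variants kept only with over 10 reads, mCherry proximal and sfGFP distal, peptide attached via GGGS linker.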

Turning to APPLPFPTPPPS, the protein stability index with Saccharomyces cerevisiae [1] (setting [3]) worked out at 0.68 ± 0.031; in the series with Saccharomyces cerevisiae [1] (setting [4]), 0.747 ± 0.034; in the series on Saccharomyces cerevisiae [1] (setting [5]), 0.644 ± 0.042; with Saccharomyces cerevisiae [1] (setting [6]) it was 0.693 ± 0.038; with Saccharomyces cerevisiae [1] (setting [7]), 0.647 ± 0.029; with Saccharomyces cerevisiae [1] (setting [8]), 0.633 ± 0.029. The same sequence had a protein stability index in the series with Saccharomyces cerevisiae [1] (setting [9]) of 0.678 ± 0.0098.
As for ARALLGVGWYWV, the protein stability index in the series with Saccharomyces cerevisiae [1] (setting [3]) was 0.654 ± 0.015; in the series with Saccharomyces cerevisiae [1] (setting [4]), 0.7854 ± 0.0065; in the series with Saccharomyces cerevisiae [1] (setting [5]) it was 0.645 ± 0.018; with Saccharomyces cerevisiae [1] (setting [6]), 0.761 ± 0.02; with Saccharomyces cerevisiae [1] (setting [7]), 0.225 ± 0.014; in the series on Saccharomyces cerevisiae [1] (setting [8]) it was 0.272 ± 0.02. In addition, the protein stability index in the series with Saccharomyces cerevisiae [1] (setting [9]) was determined as 0.537 ± 0.0059; with Saccharomyces cerevisiae [2], 0.417 ± 0.024.
With ARCKRSLSGGIG, the protein stability index in the series on Saccharomyces cerevisiae [1] (setting [3]) came to 0.489 ± 0.034; in the series with Saccharomyces cerevisiae [1] (setting [4]), 0.579 ± 0.02; in the series on Saccharomyces cerevisiae [1] (setting [5]), 0.512 ± 0.012; in the series on Saccharomyces cerevisiae [1] (setting [6]), 0.5452 ± 0.00083; with Saccharomyces cerevisiae [1] (setting [7]), 0.531 ± 0.0073; in the series on Saccharomyces cerevisiae [1] (setting [8]) it was 0.524 ± 0.022. For the same sequence, the figures for the protein stability index in the series on Saccharomyces cerevisiae [1] (setting [9]) and with Saccharomyces cerevisiae [2] were 0.54 ± 0.011 and 0.588 ± 0.14, respectively.
Regarding ARSGGYLMVVLV, the protein stability index came out at 0.56 ± 0.033 with Saccharomyces cerevisiae [1] (setting [3]); 0.599 ± 0.011 in the series with Saccharomyces cerevisiae [1] (setting [4]); 0.41 ± 0.032 in the series on Saccharomyces cerevisiae [1] (setting [5]); 0.601 ± 0.011 in the series with Saccharomyces cerevisiae [1] (setting [6]); 0.351 ± 0.0013 in the series on Saccharomyces cerevisiae [1] (setting [7]); 0.384 ± 0.023 in the series with Saccharomyces cerevisiae [1] (setting [8]). The results for the protein stability index in the series with Saccharomyces cerevisiae [1] (setting [9]) and in the series on Saccharomyces cerevisiae [2] were 0.562 ± 0.038 and 0.463 ± 0.031, respectively.
Regarding ASFVCWSVCALG, the protein stability index in the series on Saccharomyces cerevisiae [1] (setting [3]) was 0.508 ± 0.026; in the series on Saccharomyces cerevisiae [1] (setting [4]), 0.545 ± 0.006; with Saccharomyces cerevisiae [1] (setting [5]) it was 0.4 ± 0.022; with Saccharomyces cerevisiae [1] (setting [6]) it was 0.525 ± 0.015; with Saccharomyces cerevisiae [1] (setting [7]) it was 0.384 ± 0.029; in the series on Saccharomyces cerevisiae [1] (setting [8]), 0.398 ± 0.019. Also, the figures for the protein stability index with Saccharomyces cerevisiae [1] (setting [9]) and in the series on Saccharomyces cerevisiae [2] were 0.5104 ± 0.0049 and 0.413 ± 0.025, respectively.
Regarding AVTMSYQCGIFI, the protein stability index in the series on Saccharomyces cerevisiae [1] (setting [3]) is 0.646 ± 0.029; with Saccharomyces cerevisiae [1] (setting [4]), 0.672 ± 0.031; in the series on Saccharomyces cerevisiae [1] (setting [5]), 0.564 ± 0.0081; in the series with Saccharomyces cerevisiae [1] (setting [6]) it was 0.71 ± 0.028; in the series with Saccharomyces cerevisiae [1] (setting [7]) it was 0.5372 ± 0.0042; in the series with Saccharomyces cerevisiae [1] (setting [8]) it was 0.566 ± 0.019. Moreover, the protein stability index with Saccharomyces cerevisiae [1] (setting [9]) came to 0.68 ± 0.022.
For FGGVFCVMARLV, the protein stability index was determined as 0.602 ± 0.14 in the series on Saccharomyces cerevisiae [1] (setting [3]); 0.685 ± 0.016 with Saccharomyces cerevisiae [1] (setting [4]); 0.629 ± 0.034 with Saccharomyces cerevisiae [1] (setting [5]); 0.689 ± 0.01 in the series with Saccharomyces cerevisiae [1] (setting [6]); 0.318 ± 0.0054 in the series on Saccharomyces cerevisiae [1] (setting [7]); 0.356 ± 0.025 in the series with Saccharomyces cerevisiae [1] (setting [8]). In the series on Saccharomyces cerevisiae [1] (setting [9]), this sequence came in with a protein stability index of 0.506 ± 0.0059.
In the case of GGGGGGRWGRLC, the protein stability index with Saccharomyces cerevisiae [1] (setting [3]) was determined as 0.634 ± 0.047; in the series with Saccharomyces cerevisiae [1] (setting [4]) it was 0.752 ± 0.031; with Saccharomyces cerevisiae [1] (setting [5]) it was 0.66 ± 0.019; in the series on Saccharomyces cerevisiae [1] (setting [6]), 0.7572 ± 0.0018; in the series on Saccharomyces cerevisiae [1] (setting [7]), 0.189 ± 0.0036; in the series on Saccharomyces cerevisiae [1] (setting [8]), 0.232 ± 0.018. In the series with Saccharomyces cerevisiae [1] (setting [9]), the protein stability index was determined as 0.478 ± 0.0099.
For IRRWGRCRVRCM, the protein stability index with Saccharomyces cerevisiae [1] (setting [3]) is 0.584 ± 0.029; in the series with Saccharomyces cerevisiae [1] (setting [4]), 0.655 ± 0.034; in the series on Saccharomyces cerevisiae [1] (setting [5]), 0.428 ± 0.037; with Saccharomyces cerevisiae [1] (setting [6]), 0.616 ± 0.018; in the series on Saccharomyces cerevisiae [1] (setting [7]), 0.255 ± 0.0087; with Saccharomyces cerevisiae [1] (setting [8]), 0.288 ± 0.028. Moreover, the protein stability index in the series on Saccharomyces cerevisiae [1] (setting [9]) stood at 0.52896 ± 2.4e-05.
In the case of LIVFSGFLFLLS, the protein stability index came to 0.442 ± 0.01 in the series with Saccharomyces cerevisiae [1] (setting [3]); 0.53 ± 0.049 in the series with Saccharomyces cerevisiae [1] (setting [4]); 0.373 ± 0.031 in the series on Saccharomyces cerevisiae [1] (setting [5]); 0.5639 ± 0.0056 in the series on Saccharomyces cerevisiae [1] (setting [6]); 0.3758 ± 0.0014 in the series with Saccharomyces cerevisiae [1] (setting [7]); 0.364 ± 0.023 in the series on Saccharomyces cerevisiae [1] (setting [8]). For the same sequence, the protein stability index in the series on Saccharomyces cerevisiae [1] (setting [9]) was found to be 0.5096 ± 0.0027.
